Experimental data from the nanobody polyreactivity screen of Harvey et al. (2022).

experiment: yeast display, Sf9 membrane polyspecificity reagent, FACS + sequencing; frameworks hold sequencing errors
How it was run: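 Using colony PCR, genes from sorted yeast display clones were amplified, then sequenced on MiSeq at 2 × 250 and filtered by CDR length. The clones had been stained with 10% biotinylated, detergent-solubilized Sf9 membrane reagent for 1 hour at 4 °C and sorted by FACS into low and high (top ~1%) gates on anti-HA and streptavidin fluorescence. Polyreactivity labels come from the gate of origin.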

Sequence	polyreactivity (PSR sort gate)
QVQLVESGGGLVQAGGSLRLSCAASGSTFGGNAMGWYRPAPGKERELVAGITSSGTSTYYADSVKGRFTISRDNAKNTVYLQMNSLKPEDTAVYYCATDEADESYGFELFDYWGQGTQVTVSS	low polyreactivity
QVQLVESGGGLVQAGGSLRLSCAASGSTFGGNAMGWYRQAPGKERELVAAITVGGDSPYYADSVKGRYTISRDNAKNTVYLQMNSLKPEDTADYYCAARHYWWYDYWGQGTQVTVSS	low polyreactivity
QVQLVESGGGLVQAGGSLRLSCAASGSTFGGNAMGWYRQAPGKERELVAVISKRGGSTYYADSVKGRFTISRDNAKNTVYLQMNSLKAEDTAVYYCAATYSRYWSPTYDYWGEGTQVTVSS	high polyreactivity
QVQLVESGGGLVQAGGSLRLSCAASGSTFGGYAMGWYRPAPGKERELVAAINRSGARTYYADSVKGRFTISRDNAKNTVYLQMNSLKPEDTAVYYCNKAQGSHGAYDYWGQGTQVTVSS	high polyreactivity
QVQLVESGGGLVQAGGSLRLSCAASGSTFGGYAMGWYRQAPGKERELVAAISSGGSTYYADSVKGRFTISRDNAKNTVYLQMNSLKPEDTAVYYCAADTYAHWGYYGSYYRDDYWGQGTQVTVSS	low polyreactivity
QVQLVESGGGLVQAGGSLRLSCAASGSTFGGYAMGWYRQAPGKERELVATITGGGSTNYADSVKGRFTISRDNAKNTVYLQMNSLKPEDTAVYYCAATEKYQYKVYYDPVGAYDYWGQGTQVTVST	low polyreactivity
QVQLVESGGGLVQAGGSLRLSCAASGSTFGHNAMGWYRQAPGKERELVAAIDSGDGTTYADSVKGRFTISRDNAKNTVYLQMNSLKPEDTAVYYCAATTDRAEDDDNIGGYWGQGTQVTVSS	low polyreactivity
QVQLVESGGGLVQAGGSLRLSCAASGSTFGIYAMGWYRQAPGKERELVATISWGGGDTYYADSVKGRFTISRDNAKNTVYLQMNSLKPEDTAVYYCAADLWYGKTSGSTTPDPYDYWGQGTQVTVSS	low polyreactivity
QVQLVESGGGLVQAGGSLRLSCAASGSTFGIYARGWYIQAPGKEWDLVAAITWIGSDTYYADSVKGRFTISRDNAKNTVYLQMISLKPEDTAVYYCNAVKLLGTRGYGYWGQGTQVTVSS	high polyreactivity
QVQLVESGGGLVQAGGSLRLSCAASGSTFGKNAMGWYRQAPGKERELVAAISRSGGRTYYADSVKGRFTISRDNAKNTVYLQMNSLKPEDPAVYYCAREWYTAGSGDYWGQGTQVTVSS	low polyreactivity
QVQLVESGGGLVQAGGSLRLSCAASGSTFGKNAMGWYRQAPGKERELVASITWRGGSTYYADSVKGRFTISRDNAKNTVYLQMNSLKPEDTAVYYCATKWHIHIGSYKYYYWGHGTQVTVSS	low polyreactivity
QVQLVESGGGLVQAGGSLRLSCAASGSTFGKYAMGWYRPAPGKERELVAGITYSGGSTYYADSVKGRFTISRDNAKNTVYLQMNSLKPEDTAVYYCAADGSYYTDFVASKYDYWGQGTQVTVSS	low polyreactivity
QVQLVESGGGLVQAGGSLRLSCAASGSTFGKYAMGWYRQAPGKERELVASISRSGASTYYADSVKGRFTISRDNAKNTVYVQMNSQKPEDTAVYYCNKARNPEGYWRYDYWGQGTQVTVSS	high polyreactivity
QVQLVESGGGLVQAGGSLRLSCAASGSTFGLNAMGWYRQAPGKERELVAAITRSDITNYADSVKGRFTISRDNAKNTVYLQMNSLKPEDTAVDYCAARGLWPYDYWGQGTQVTVSS	low polyreactivity
QVQLVESGGGLVQAGGSLRLSCAASGSTFGLYAMGWYRQAPGKERELVAAITRGGVTDFADCVKGRFTFSRDNAKYTVYLQMNSLKPEDTAVYYCAAQYKRYHGLFGFWGQGTQVTVSS	high polyreactivity
QVQLVESGGGLVQAGGSLRLSCAASGSTFGLYGMGWYRQAPGKDRELVAAITWSGGSTYYADSVKGRFTISRDNAKNTVYLQMNSLKPEDTAVYYSNADYYYWFSYGIGDNEYDYWGQGTQVTVSS	low polyreactivity
QVQLVESGGGLVQAGGSLRLSCAASGSTFGNNTMGWNRQSPGKEREFVAAITESGGGTYADSVKGRFTISRDNAKNTVYLQLNSLKPEDTAVYYCAAVWYIWPFAFYDWAQGTQVTVSS	high polyreactivity
QVQLVESGGGLVQAGGSLRLSCAASGSTFGNNTMGWYRQAPGKEREFVAAITESGGGTYADSVKGRFTISRDNAKNTVYLQMNSLKPEDTAVYYCAAVWYIWPFAFYYWGQGTQVTVSS	high polyreactivity
QVQLVESGGGLVQAGGSLRLSCAASGSTFGNYAMGGYRQAPGKERELVAVSTSAGSTYYADSVKGRFTISRDNAKNTVYLQMNSLKPEDPAVYYCNTGKHVRYYYWGQGTQVTVSS	low polyreactivity
QVQLVESGGGLVQAGGSLRLSCAASGSTFGPNAMGWYRQAPGKERELVATISFRGGTTYYADSVKGRFTISRDHAKNTVYLQMNSLKPEDTAVYYCAVKVGYVRLLYHYYYWGQGTQGTVSS	high polyreactivity
QVQLVESGGGLVQAGGSLRLSCAASGSTFGPNTMGWYRQAPGKERELVAAITSTGSTYYADSVKGRFTISRDNGKNTVYFEMNILLPEDTAVYYCAARRYYGVYYAFYYWGQGTQVTVSS	high polyreactivity

Sequence	polyreactivity (PSR sort gate)
QVQLVESGGGLVQAGGSLRLSCAASGSTFGPYAMGWYRQAPGKERELVAAIRSDGGTYYADSVKGRFTISRDNAKNTVYLQMNSLKPEDTAVYYCATRPINSYYDHDSWGQGTQVTVSS	high polyreactivity
QVQLVESGGGLVQAGGSLRLSCAASGSTFGPYVMGGYRQAPGKERELVAVISGGSTDYADSVKGRFTISRDNAKNTVYLQMNSLKPEDTAVYYCNAEYYFYLSPTVYLYDYWGQGTQVTVSS	high polyreactivity
QVQLVESGGGLVQAGGSLRLSCAASGSTFGQYVMGWYRQAPGKERELVAAITYSGGSTYYADSVKGRFTISRDNAKNTVYLQMNSLKPEDTAVYYCAARGRRDGYSRVPRGYWGQGTQVTVSS	high polyreactivity
QVQLVESGGGLVQAGGSLRLSCAASGSTFGRNAMGWYRQAPGKERELVAAISNGGSTNYADSVKGRFTISRDNAKNTVYLQMNSLNPEDTAVYYCNRRVPYSFYSRGYYYWGQGTQVTVSS	high polyreactivity
QVQLVESGGGLVQAGGSLRLSCAASGSTFGRNAMGWYRQAPGKERELVAAISWSASRTYYADSVKGRFTISRDNAKNTVYLQMNSLIPDDTAVYYCAAEYDVGYFGYEYWGQGTQVTVSS	high polyreactivity
QVQLVESGGGLVQAGGSLRLSCAASGSTFGRNAMGWYRQAPGKERELVAAITASGGTTYYADSVKGRFTISRDNAKNTVYLQMNSLKPEDTAVYYCARAGHFSFKDDYWGQGTQVTVSS	low polyreactivity
QVQLVESGGGLVQAGGSLRLSCAASGSTFGRNAMGWYRQAPGKERELVAAITASGGTTYYADSVKGRFTISRDNAKNTVYLQMNSLKPEETAVYYCARAGHFSFKYDYWGQGTQVTVSS	low polyreactivity
QVQLVESGGGLVQAGGSLRLSCAASGSTFGRNTMGWYRKAPGKERELVASITRSSTSTNYADSVKGRFTISRDNAKNTVYLQMNSLKPEDTAVYYCAARALRTDRSPVGSHEYWGQGTQVTVSS	low polyreactivity
QVQLVESGGGLVQAGGSLRLSCAASGSTFGRNTMGWYRPAPGKERELVAAITAGDTTTYADSVKGRFTISRDNAKNTDYLQMKSLKREDTAVYYCAVDPVRGRDYSWMDYWGQGSQVTVSS	low polyreactivity
QVQLVESGGGLVQAGGSLRLSCAASGSTFGRNVMGWYRQAPGKERELVAAISIRGGSTYYADSVKGRFTISRDNAKNTVYLQMNSLKPEDTAVYYCARDYPTDAYDYWGQGTQVTVSS	low polyreactivity
QVQLVESGGGLVQAGGSLRLSCAASGSTFGRYAMGWYRQAPGKERELVAAITRSGGRTYYADSLKGRFTISRDNAKNTVYLQMNSLKPEDTAVYYCAAVGNLYYTSHWQYDYWGQGTQVTVSS	high polyreactivity
QVQLVESGGGLVQAGGSLRLSCAASGSTFGRYTMGWYRQAPGKEREFVAAIRWSGGNTYYADSVKGRFTISRDNAKNTVYLQMNSLKPEDTAVYYCNRVYSTIGDYWGQGTQVTVSS	low polyreactivity
QVQLVESGGGLVQAGGSLRLSCAASGSTFGRYVMGWYRQAPGKERELVAAISYSGGRTYYADSVKGRFTISRDNAKNTVYLQMNSLKPEDTAVYYCAARVRTVRNTYYSWGQGTQVTVSS	high polyreactivity
QVQLVESGGGLVQAGGSLRLSCAASGSTFGSNAMGWYRQAPGKERELVAAISSIGGSTYYADSVKGRFTISRDNAKNTVYLQMNSLKTEDTAVYYCAAKYYGRYYRYLGSSFDYWGQGTQVTVSS	high polyreactivity
QVQLVESGGGLVQAGGSLRLSCAASGSTFGSNAMGWYRQAPGKERELVAAITYSGGRTYYADSVKGRFTISRDNAKNTVYLQMNSLKPEDTAVYYCAATFGFFYYQYDYWGQGTQVTVSS	low polyreactivity
QVQLVESGGGLVQAGGSLRLSCAASGSTFGSNDLGWYRQAPGQERELVAAITWSGGSTFYADSVKGRFTISRDNAKNTVYLQMNSLKPEDTALYSCAVSTEVNRYHAKYDYRGQGTQVTVSS	low polyreactivity
QVQLVESGGGLVQAGGSLRLSCAASGSTFGSYAMGWYRQAPGKERELVAAISRSGTSTYYADSVKGRFTISRDNAKNTVYLQMNSLKPEETAVYYCAAKFVTSGGLEGYWGQGTQVTVSS	high polyreactivity
QVQLVESGGGLVQAGGSLRLSCAASGSTFGSYAMGWYRQAPGKERELVADISSRGASTYYADSVKGRFTISRDNAKNTVYLQMNSLKPEDTAVYYCARDVYIWYGYGYFPEYEYWGQGTQVTVSS	low polyreactivity
QVQLVESGGGLVQAGGSLRLSCAASGSTFGSYTMGWYRQAPGKERELVAAISYSSGRTYYADSVKGRFTISRDNAKNTVYLQMNSLKPEDTAVYYCAAVSRGRGEYDYWGQGTQLTVSS	high polyreactivity
QVQLVESGGGLVQAGGSLRLSCAASGSTFGTNAMGWYRQAPGKERELVAAISTGGSTYYADSVKGRFTISRDNAKNTVYLQMNSLKPEDNAVYYCAALADYVRRASDYWGQGTQVTVSS	low polyreactivity
